Reference: patent publication US20090169520A1, “Compounds, Pharmaceutical Compositions and Therapeutic Methods of Preventing and Treating Diseases and Disorders Associated With Amyloid Fibril Formation” (YISSUM RESEARCH DEVELOPMENT COMPANY OF THE HEBREW …, priority 2005, published 2009)
Ends that are not written are not given here.

Experiments:
[1] = biological target: T1, Aβ (1-40) peptide (Homo sapiens, UniProt P05067); test: In vitro formation of amyloid fibril from Aβ (1-40), Thioflavin T fluorescence; format: biochemical; conditions: for effect on Aβ fibril formation (in words): 33 μM Aβ, ThT fluorescence; for Lag (fold change) / Rate (fold change): relative to No addition, asterisk = statistically significant
T1 construct: synthetic Aβ (1-40) peptide; purchased Biosource, Camarillo, Calif., USA; host or cells: chemical synthesis
T1 sequence (P05067 672-711 limits assumed): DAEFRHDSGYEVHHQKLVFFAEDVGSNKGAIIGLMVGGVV
From the text: In vitro formation of amyloidfibril—In vitro formation of amyloid fibril was in the presence of the synthetic Aβ (1-40) peptide (Biosource, Camarillo, Calif., USA) as a precursor. The reporter molecule was Thioflavin T (ThT) (Sigma, Cat. No. T-3516, Jerusalem, Israel), a benzothiazole dye that undergoes a shift in its excitation spectrum (from 340 nm to 450 nm) when interacting with β-sheet amyloid structures. The resultant ThT fluorescence signal is proportional to the amount of amyloid formed (LeVine, 1993). A stock solution of Aβ in dimethylsulfoxide (DMSO) was diluted with phosphate-buffered saline (PBS) containing 0.02% Na-Azid to a final concentration of 162 μM and 20 μl of the diluted Aβ solution was placed in each well of a 96 multiwell plate (Nunc, Roskilde, Denmark). After 20 minutes of pre-incubation at room temperature of the Aβ samples (20 μl), 80 μl of 1.25 μM ThT in 50 mM glycine buffer, pH 8.5, was added. Incubation was with shaking at 200 rpm for 6 to 8 hours at the noted temperatures. Fluorescence was measured continuously or at 30-40 minute intervals, using a Spectro-fluorometer (Tecan, Maennedorf, Switzerland). Excitation and emission wavelengths were 450 nm and 485 nm, respectively. Enhancement of the fibrillation process by the different combinations of water-dissolved cholinesterases and peptides mimicking fragments thereof, was evaluated by dissecting the time curves into two stages: the lag before the onset of the fluorescence increase (the nucleation process) and the average rate of fluorescence increase at several time points (rate of fibrils formation). Statistics analysis was performed using the Kaleidagraph Software (Reading, Pa., USA).
BChE attenuates amyloid fibrils formation—Amyloid fibril (Aβ) formation was quantified by measuring changes in ThT fluorescence. As predicted, Aβ fibrils were spontaneously formed in vitro provided that the Aβ peptide was present above 5 μM. […] Reactions were performed in the absence or presence of increasing concentrations of purified human BChE (SEQ ID NO:2; FIG. 1a), recombinant ACHE-S (SEQ ID NO:6; FIG. 1b) or both (FIGS. 1c and d). […] Due to the complex kinetics of the fibril formation process the apparent rate of change in ThT fluorescence was repeatedly determined during the exponential phase of increase in its signal (at 390±20 minutes). […] In contrast, addition of similar doses of AChE to Aβ, predictably shortened by half the lag time prior to fibril formation, again in a dose dependent manner (FIG. 1e). The lag period therefore decreased from 240 minutes to 150 minutes and the maximal rate of fibril formation increased from 0.057 to 0.116 fluorescence units (FU)/min for Aβ alone as compared to Aβ in the presence of 0.36 μM AChE-S (FIG. 1b and Table 7, hereinbelow). When increasing doses of hBChE were added to a combined mix of 33 μM Aβ with 0.36 μM AChE-S, a dose-dependent interference with the fibril formation process was observed (FIG. 1c and 2a). Thus, BChE is capable of reducing the rate of fibrillation of Aβ alone, or Aβ which is formed in the presence of AChE.

[2] = Solubility in water for CD measurements; format: physicochemical; conditions: up to the concentration required for CD tests (1×10^−4 M); HFIP used instead
Description: Circular Dichroism (CD) measurements—For circular dichroism (CD) measurements, ASP peptides were dissolved in double distilled water (DDW) to a final concentration of 1×10^−4 M. To reach this concentration, as required for the CD measurements, BSP had to be dissolved in 1,1,1,3,3,3-hexafluoro-2-propanol (HFIP). Direct CD spectra were recorded at room temperature using a CD Jasco J-810 Spectropolarimeter (Easton, Md., USA) with a 1 mm path length cell. Recordings were at 0.5 nm intervals in the spectral range 185-260 nm.
Molecular modeling points at putative structural differences between BSP and ASP—In search for structural differences between the BSP and ASP peptides, the circular dichroism (CD) properties of the synthesized series of BSP and ASP peptides were determined (FIG. 4). […] The helical features observed for ASP40 are in line with reports of others (Cottingham et al., 2003).

Substance	effect on Aβ fibril formation (in words) [1]	Lag (fold change) [1]	Rate (fold change) [1]	solubility in water (in words) [2]
ASP40: synthetic AChE-S C-terminal peptide, mimics residues 575-614 in hAChE (DTLDEAERQWKAEFHRWSSYMVHWKNQFDHYSKQDRCSDL; ASP40 Synthetic peptide) [reference compound]	failed to show any significant capacity to activate or inhibit fibrillation	1.1 fold change	0.8 fold change	
ASP23: synthetic AChE-S C-terminal peptide, mimics residues 592-614 in hAChE [reference compound]	no significant effect on amyloid formation	1.1 fold change	1.2 fold change	
GNIDEAEWEWKAGFHRWNNYMMDWKNQFNDYTSKKESCVGL [BSP41]				difficulties to solubilize
